We go through one molecule from publication PMC4140777, “Recognition of Bungarus multicinctus Venom by a DNA Aptamer against β-Bungarotoxin”.

For this series, the target named is α-bungarotoxin (α-BuTx) (Bungarus multicinctus, UniProt P60615 22-95). The series is described as follows: 20 mM HEPES pH 7.4, 150 mM NaCl, 5 mM KCl, 2 mM MgCl2, 2 mM CaCl2, room temperature. The note with it: protein: commercial; label: 5'-FAM (FA, filter, EMSA); biotin (ELAA); stem-loop (predicted).
Chain of α-bungarotoxin (α-BuTx) (P60615 22-95): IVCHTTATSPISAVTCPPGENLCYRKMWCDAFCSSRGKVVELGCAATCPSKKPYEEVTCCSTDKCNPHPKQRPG

B1: βB-1 (ssDNA)
DNA: AGCAGCACAGAGGTCAGATGGTTTTCCCCTTGTCGCTTTTGGTTCGTTCTGCCTCTATCTCCTATGCGTGCTACCGTGAA
As to B1, the binding result is reported as “no binding”.
